According to paper doi:10.1101/2024.11.23.624964 (bioRxiv, 2024):

Molecular target: the molecule itself
Test: thioflavin-T fluorescence

B1: TDP-43-low complexity domain (LCD) (aa: 274-414) (domain or fragment, UniProt Q13148 274-414, looked up)
chain: GRFGGNPGGFGNQGGFGNSRGGGAGLGNNQGSNMGGGMNFGAFSINPAMMAAAQAALQSSWGMMGMLASQQNQSGPSGNNQNQGNMQREPNQAFGSGNNSYSGSNSGAAIGWGSASNAGSGSGFNGGFGSSMDSKSSGWGM
binding result: binds
